{"source": "the nanobody polyreactivity screen of Harvey et al. (2022)"}
{"assay": "yeast display, Sf9 membrane polyspecificity reagent, FACS + sequencing; frameworks hold sequencing errors", "summary_of_the_method": "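Using colony PCR, genes from sorted yeast display clones were amplified, then sequenced on MiSeq at 2 × 250 and filtered by CDR length. The clones had been stained with 10% biotinylated, detergent-solubilized Sf9 membrane reagent for 1 hour at 4 °C and sorted by FACS into low and high (top ~1%) gates on anti-HA and streptavidin fluorescence. Polyreactivity labels come from the gate of origin.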"}
{"sequence": "QVQLVESGGGLVQAGGSLRLSCAASGRTFGWYTMGWYRHAPGKERELVAAISRSGTSTYYADSVKGRFTISRDNAKNTVYLQMHSLKPEDTAVYYCAQYVNARGGNDWGQGTLVTVSS", "polyreactivity (PSR sort gate)": "high polyreactivity"}
{"sequence": "QVQLVESGGGLVQAGGSLRLSCAASGRTFGWYTMGWYRKAPGKVRELVAGISSSGGSTYYADSVKGRFTISRDNAKNTVYLQMNSLKPEDTAVYYCARETYPHGLYYRPYDYWGQGTQVTVSS", "polyreactivity (PSR sort gate)": "low polyreactivity"}
{"sequence": "QVQLVESGGGLVQAGGSLRLSCAASGRTFGWYTMGWYRQAPGKEREFVAAISSSDTSTYYADSVKGRFTISRDNAKNTVYLQMNSLKPEDTAVYYCAADPPSWLWFVGYSYDYWGQGTQVTVTS", "polyreactivity (PSR sort gate)": "low polyreactivity"}
{"sequence": "QVQLVESGGGLVQAGGSLRLSCAASGRTFGYNAMGWYRQAPGKERELVAAIRYSGGSTYYADSVKGRFTISRDNAKNTVYLQMNSLKPEDTAVYYCAKETRRYYRGYYYWGQGTQVTVSS", "polyreactivity (PSR sort gate)": "high polyreactivity"}
{"sequence": "QVQLVESGGGLVQAGGSLRLSCAASGRTFGYNAMGWYRQAPGKERELVAAISSSGGSTYYADSVKGRFTISRDNAKNTVYLQMNSLKPEDTAVYYCATQGYSWAHGSDYWGQGTQVTVSS", "polyreactivity (PSR sort gate)": "low polyreactivity"}
{"sequence": "QVQLVESGGGLVQAGGSLRLSCAASGRTFGYNAMGWYRQAPGKERELVATISWGCGSTYYADSLKWRFTISPDNAKNTVYLQMNSLKPEDTAVYYCNKVHYGRLHSYSRAIYGEDYWGQGTQVTVSS", "polyreactivity (PSR sort gate)": "high polyreactivity"}
{"sequence": "QVQLVESGGGLVQAGGSLRLSCAASGRTFGYNAMGWYRQAPGKETELVAAIRYSGGSTYYADSVKGRFTISRDNSKNTVYLQMNSLKPEDTAVYYCAKETRRYYRGYYYWGQGTQVTVSS", "polyreactivity (PSR sort gate)": "high polyreactivity"}
{"sequence": "QVQLVESGGGLVQAGGSLRLSCAASGRTFGYNVMGWYRQAPGKERELVADITSTSSTSYADSVKGRFTISRDNAKNTVYLQMNSLKPEDTAVYYCAAYYYFFRRYSWRLSGDYWGQGTQVTVSS", "polyreactivity (PSR sort gate)": "low polyreactivity"}
{"sequence": "QVQLVESGGGLVQAGGSLRLSCAASGRTFGYYAMGWYIQAPGKERELVAAISSRGGSTYYADSVKGRFTISRDNAKNTVYLQMNSLKPEDTAVYYCNTRWTNIHPRYDYWGQGTQVTVSS", "polyreactivity (PSR sort gate)": "high polyreactivity"}
{"sequence": "QVQLVESGGGLVQAGGSLRLSCAASGRTFGYYAMGWYRPAPGKERELVAAISSGGGTYYADSVKGRFTISRDNAKNTVYLQRNSLNPEASAVYYIAATGWLYWGQFYYWGQGTLVTVSS", "polyreactivity (PSR sort gate)": "low polyreactivity"}
{"sequence": "QVQLVESGGGLVQAGGSLRLSCAASGRTFGYYAMGWYRQAPGKEREFVAAISFRTTSTYYADSVKGRFTISRDNAKNTVYLQMNSLKPEDTAVYYCNADWYLLSTWYDYWGQGTQVTVSS", "polyreactivity (PSR sort gate)": "high polyreactivity"}
{"sequence": "QVQLVESGGGLVQAGGSLRLSCAASGRTFGYYAMGWYRQAPGKERELVAAISGSGGSTYYADSVKGRFTISRDNAKNTVYLQMKSLKPEDTAVYYCNVYPPYAMDYWGQGTQVTVSS", "polyreactivity (PSR sort gate)": "high polyreactivity"}
{"sequence": "QVQLVESGGGLVQAGGSLRLSCAASGRTFGYYAMGWYRQAPGKERELVAAISRSGGSTYYADSVKGRFTISRDNAKNTVYLQMNSLKPEDTAVYYCAVKGYVKSDYWGQGTQVTVSS", "polyreactivity (PSR sort gate)": "high polyreactivity"}
{"sequence": "QVQLVESGGGLVQAGGSLRLSCAASGRTFGYYAMGWYRQAPGKERELVAAISWSGGRTYYADSVKGRFTISRDNAKNTVYLQMNSLKPEDTAVYYCAAQTAGFWYDYWGQGTQVTVSS", "polyreactivity (PSR sort gate)": "high polyreactivity"}
{"sequence": "QVQLVESGGGLVQAGGSLRLSCAASGRTFGYYAMGWYRTAPGKERELVAAIRSTGSTNYADSVKGRFTISRDNAKNTVYLQMNSLKPEDTAVYYCNAKRRFRYDYWGQGTQVTVSS", "polyreactivity (PSR sort gate)": "low polyreactivity"}
{"sequence": "QVQLVESGGGLVQAGGSLRLSCAASGRTFGYYTMGWSRQAPGKERDLVATISSDGTTNYADSVKGRFTISRDNAKNTVYLQMNSLKPEDTAVYYCNADFRLQYYYRIYDYWGQGTQVTVSS", "polyreactivity (PSR sort gate)": "low polyreactivity"}
{"sequence": "QVQLVESGGGLVQAGGSLRLSCAASGRTFGYYVMGWYRQAPGKERELVAAISQSGGSTYYADSVKGRFTISRDNAKNTVYLQMNSLKPEDTAVYYCAKRGWRTFQGGYWGQGTQVTVSS", "polyreactivity (PSR sort gate)": "high polyreactivity"}
{"sequence": "QVQLVESGGGLVQAGGSLRLSCAASGRTFHGYAMGWYRQAPGKERELVARINWSDGRTYYADSVKGRFTISRDNAKNTVYLQMNSLKPVDTAVYYCAADKNVSYAPAWFYYWGQGTQVTVSS", "polyreactivity (PSR sort gate)": "low polyreactivity"}
{"sequence": "QVQLVESGGGLVQAGGSLRLSCAASGRTFHHNAMGWYRQAPGKERELVATITAGSGSTYYADSVKGRFTISRDNAKNTVYLQMNSQKPEDTAVYYCAARVGWNKRRYDYWGQCTQVTVSS", "polyreactivity (PSR sort gate)": "low polyreactivity"}
{"sequence": "QVQLVESGGGLVQAGGSLRLSCAASGRTFHIYAMGWYRQAPGKERELVAAIRGRSGSTYYADSVKGRFTISRDNAKNTVYLQMNSLKPEDTAVYYCAVGRYPYGSARYRFDYWGQGTQVTVSS", "polyreactivity (PSR sort gate)": "high polyreactivity"}
{"sequence": "QVQLVESGGGLVQAGGSLRLSCAASGRTFHKNAMGWYRQAPGQERELVAAISGSGGSTYYADSVKGRFTISRDNAKNTVYLQMNSLKPEDTAVYYCAADSSYYEEDYWGQGNQVTVSS", "polyreactivity (PSR sort gate)": "high polyreactivity"}
{"sequence": "QVQLVESGGGLVQAGGSLRLSCAASGRTFHRYAMGWYRQAPGKERELVATISRGGSTNYADSVKGRFTISRDNAKNTVYLQMHSLKPEDTAVYYCAAESWIYWYPDTGDYWGQGTQVTLSS", "polyreactivity (PSR sort gate)": "high polyreactivity"}
{"sequence": "QVQLVESGGGLVQAGGSLRLSCAASGRTFHSNAMGWYRKAPGKERELVAAIRFGGGSTYYADSVKGRFTISRDNAKNTVYLQMNSLKPEDTAVYYCNASPLWIGWEIVPVGSSHYDYWGQGTQVTVSS", "polyreactivity (PSR sort gate)": "low polyreactivity"}
{"sequence": "QVQLVESGGGLVQAGGSLRLSCAASGRTFHSNDMGWYRQAPGKERELVAAISSSDGITYYADSVKGRFTISRDNAKNTVYLQMNSLKQEDNAVYYCAARRYRSGYYSFYFWGQGTQVTVSS", "polyreactivity (PSR sort gate)": "high polyreactivity"}
{"sequence": "QVQLVESGGGLVQAGGSLRLSCAASGRTFHYNAMGWYRQAPGKERELVAAITRSGGSTYYADSVKGRFTISRDNAKNTVYLQMNSLKPEDTAVYYCNAAYLHPGPFDYWGQGTQVTVSS", "polyreactivity (PSR sort gate)": "low polyreactivity"}
{"sequence": "QVQLVESGGGLVQAGGSLRLSCAASGRTFHYYAMGWYRQAPGKERELVAGISRRGGSTSYADSVKGRFTISRDNAKNTLYLQMNSLKPEDTAVYYCNADRVTFSWPVNYYWVDYWGQGTQVTVSS", "polyreactivity (PSR sort gate)": "high polyreactivity"}
{"sequence": "QVQLVESGGGLVQAGGSLRLSCAASGRTFIGNVMGWSRQAPGKERELVAAITRSGGSTYYADSVKGRFTISRDNAKNTVYLQMNSLKPEDTAVYYCNAVRRTGGHGDYWGQGTQVTVSS", "polyreactivity (PSR sort gate)": "high polyreactivity"}
{"sequence": "QVQLVESGGGLVQAGGSLRLSCAASGRTFIGYAMGWYRQAPGKERELVAAISSGGNTYYADSVKGRFTISRDNAKNTVYFQMNSLKPEDTAVYYCAAKGYRRVARYFIGDYWGQGTQVTVSS", "polyreactivity (PSR sort gate)": "low polyreactivity"}
{"sequence": "QVQLVESGGGLVQAGGSLRLSCAASGRTFIIYTMGWYRQAPGKEREFVAAITRSGGGTYYADSVKGRFTISRDNAKNTVYLQMNSLKPEDTAVYYCAADRFYDQAYDYWGQGTQVTVSS", "polyreactivity (PSR sort gate)": "low polyreactivity"}
{"sequence": "QVQLVESGGGLVQAGGSLRLSCAASGRTFIIYTMGWYRQAPGKEREFVAAITRSGGGTYYADSVKGRFTISRDNAKNTVYLQMNSLKPEDTAVYYFAADRFYDQAYDYWGQGTQVTVSS", "polyreactivity (PSR sort gate)": "low polyreactivity"}
{"sequence": "QVQLVESGGGLVQAGGSLRLSCAASGRTFIKYAMGWYRQAPGKERELVAAITYSAGSTSYADSVKGRFTISRDNAKNTVYLQMNSLKPEDTAVYYCNAVPTWWTQEVGSYKSLGYWGQGTQVTVSS", "polyreactivity (PSR sort gate)": "low polyreactivity"}
{"sequence": "QVQLVESGGGLVQAGGSLRLSCAASGRTFINNAMGWYRQAPGKERELVAAISWDGGRTYYADSVKGRFTISRDNAKNTVYLQMNSLKPEDTAVYYCNAQPNYAYHGEDDYWGQGTQVTVSS", "polyreactivity (PSR sort gate)": "high polyreactivity"}
{"sequence": "QVQLVESGGGLVQAGGSLRLSCAASGRTFIPYAMGWYRQAPGKERELVATIRRGGSTYYADSVKGRFTISRDNAKNTVYLQMYSLKPEDTAVYYCAATRYSFGPRRVDYWGQGTQVTVSS", "polyreactivity (PSR sort gate)": "high polyreactivity"}
{"sequence": "QVQLVESGGGLVQAGGSLRLSCAASGRTFIPYGMGWYRQAPGKERELVAAIRDGGSTNYADSVKGRFTISRDNAKNTVYLQMNSLKPADTAVYYCNADLPVYVDYINGGYGYWGQGTQVTVSS", "polyreactivity (PSR sort gate)": "low polyreactivity"}
{"sequence": "QVQLVESGGGLVQAGGSLRLSCAASGRTFIRYAMAWYRQAPGKGRELLAANNWSGSTYYADSVKGRFTISRDNAKNTVYVQINSLKPEDTAVYYCAAYPYGVTNAYGSWGQGTQVTVSS", "polyreactivity (PSR sort gate)": "high polyreactivity"}
{"sequence": "QVQLVESGGGLVQAGGSLRLSCAASGRTFIRYAMGWYRQAPGKERELVAAITQSGGSTYYADSVKGRFTISRDNAKNTVYLQMNSLKPEDTAVYYCAAEYRYPGWSYNYWGQGTQVTVSS", "polyreactivity (PSR sort gate)": "high polyreactivity"}
{"sequence": "QVQLVESGGGLVQAGGSLRLSCAASGRTFISNAMGWYRQAPGKERELVAAISSVGSTNYADSVKGRFTISRDNAKNTVYLQMKSLKPEDTAVYYCAAGRFWFLAHYGGYYWGQGTQVTVSS", "polyreactivity (PSR sort gate)": "high polyreactivity"}
{"sequence": "QVQLVESGGGLVQAGGSLRLSCAASGRTFISNTMGWYRQAPGKERELVAALSGSGGSTYYADSVKGRFTISRDNAKNSVYLNMNRLKPEDTAVYYCNAPYVRQTRFGQSVRNNYWGQGTQVTVSS", "polyreactivity (PSR sort gate)": "high polyreactivity"}
{"sequence": "QVQLVESGGGLVQAGGSLRLSCAASGRTFISYAMGWYRQAPGKERELVAGISTSGDNTYNADSVKGRFTISRDNAKNTVYLQMNSLKPEDTAVYYCAAGQDLHDFDYWGQGTQVTVSS", "polyreactivity (PSR sort gate)": "low polyreactivity"}
{"sequence": "QVQLVESGGGLVQAGGSLRLSCAASGRTFIVNAMGWYRQAPGKERELVAAITKGARTYYADSVKGRFTISRDNAKNTVYLQMNSLKPEDSAVYYCAAVSYTQSHAYWGTGYRYGYWGQGTQVTVSS", "polyreactivity (PSR sort gate)": "high polyreactivity"}
